Data reported in patent US20220177593A1 (CELLDEX THERAPEUTICS, published 2022).
Residue numbers refer to the chain shown, from its start.

Columns and labels:
[1] = molecular target: T1, human Axl expressed on the surface of cells (human, UniProt P30530 26-894); assay: flow cytometry on L cells expressing human Axl
T1 construct: whole, on cells; also called huAxl; Axl on H1299 cells
T1 sequence (looked up): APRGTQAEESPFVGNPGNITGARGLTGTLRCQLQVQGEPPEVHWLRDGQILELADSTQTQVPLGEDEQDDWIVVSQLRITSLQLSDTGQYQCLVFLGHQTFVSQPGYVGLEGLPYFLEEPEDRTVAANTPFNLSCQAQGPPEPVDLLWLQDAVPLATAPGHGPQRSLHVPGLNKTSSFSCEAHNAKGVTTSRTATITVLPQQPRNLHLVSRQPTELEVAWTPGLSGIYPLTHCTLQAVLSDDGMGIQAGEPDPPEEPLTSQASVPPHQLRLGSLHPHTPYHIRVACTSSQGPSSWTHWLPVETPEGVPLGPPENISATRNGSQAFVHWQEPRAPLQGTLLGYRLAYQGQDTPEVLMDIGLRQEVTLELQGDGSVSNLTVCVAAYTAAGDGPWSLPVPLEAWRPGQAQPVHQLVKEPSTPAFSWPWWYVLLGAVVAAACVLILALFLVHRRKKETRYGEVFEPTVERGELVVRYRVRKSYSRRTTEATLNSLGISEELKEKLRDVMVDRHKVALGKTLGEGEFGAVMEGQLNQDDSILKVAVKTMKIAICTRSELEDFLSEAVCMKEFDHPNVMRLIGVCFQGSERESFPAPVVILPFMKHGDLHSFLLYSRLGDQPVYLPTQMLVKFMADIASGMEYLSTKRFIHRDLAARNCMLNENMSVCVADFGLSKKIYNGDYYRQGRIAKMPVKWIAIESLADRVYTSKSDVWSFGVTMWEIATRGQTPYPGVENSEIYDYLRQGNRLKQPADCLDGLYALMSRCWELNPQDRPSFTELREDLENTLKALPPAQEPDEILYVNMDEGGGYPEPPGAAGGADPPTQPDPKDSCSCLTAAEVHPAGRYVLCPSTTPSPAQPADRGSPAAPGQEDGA
Description: (§1) The ability of anti-Axl human antibodies to bind to Axl on cells expressing human Axl on their surface was investigated by flow cytometry as follows: Purified antibodies were incubated with either L cells expressing human Axl on their surface or H1299 cells at room temperature on a plate shaker. After 20 minutes, the cells were washed with PBS containing 0.1% BSA and 0.05% NaN₃ (PBA), and the bound antibodies were detected by incubating the cells with a phycoerythrin (PE)-labeled goat anti-human IgG Fc-specific probe. The excess probe was washed from the cells with PBA and the cell-associated fluorescence was determined by analysis using a FACSCanto II™ instrument (BD Biosciences, NJ, USA) according to the manufacturer's directions.

[2] = molecular target: T2, recombinant human Axl-msFc (human, UniProt P30530 26-449, limits assumed); assay: ELISA, plates coated with recombinant human Axl-msFc
T2 construct: also called soluble human Axl-msFc; huAxl; not shown: mouse Fc (msFc)
T2 sequence (looked up): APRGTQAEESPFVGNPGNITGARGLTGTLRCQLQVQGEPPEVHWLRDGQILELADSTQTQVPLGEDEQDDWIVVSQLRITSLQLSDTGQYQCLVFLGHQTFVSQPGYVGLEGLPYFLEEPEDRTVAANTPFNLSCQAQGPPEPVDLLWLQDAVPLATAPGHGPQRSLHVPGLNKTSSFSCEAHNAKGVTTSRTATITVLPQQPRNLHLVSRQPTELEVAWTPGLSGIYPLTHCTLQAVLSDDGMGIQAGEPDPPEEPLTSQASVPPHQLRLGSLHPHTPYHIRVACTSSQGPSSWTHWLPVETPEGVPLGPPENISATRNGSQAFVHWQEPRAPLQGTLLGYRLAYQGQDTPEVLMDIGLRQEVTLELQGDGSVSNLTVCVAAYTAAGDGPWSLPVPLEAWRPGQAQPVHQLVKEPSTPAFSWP
Description: Binding of Ab301 and four humanized antibody subclones to human Axl was determined by ELISA using the following protocol: Microtiter plates were coated with recombinant human Axl-msFc, in phosphate-buffered saline (PBS), and then blocked with 5% bovine serum albumin (BSA) in PBS. Protein A purified human monoclonal antibodies and an isotype control were added at various concentrations and incubated at 37° C. The plates were washed with PBS/Tween and then incubated with a goat-anti-human IgG Fc-specific polyclonal reagent conjugated to horseradish peroxidase (HRP) at 37° C. After washing, the plates were developed with HRP substrate, and analyzed at OD 450-650 using a microtiter plate reader.

[3] = molecular target: T3, Domain 1 (Ig-like domain 1) of the human Axl extracellular domain (human, UniProt P30530 34-137); assay: ELISA on purified Axl domains coated on plates, Ab301 at 5 ug/mL
T3 construct: The tag is not described; also called D1; Domain 1 of the Axl-ECD alone
Description: (§2) Human Axl domains (D1-D4) of the Axl extracellular domain (Axl-ECD) were expressed in Exi293 cells, purified by nickel affinity chromatography and buffer exchanged to PBS. […] Ab301 was added at 5 μg/mL for 1 hour at room temperature, washed, and subsequently incubated with an HRP- conjugated goat anti-human antibody (Jackson Immunoresearch). Plates were washed and incubated with TMB (Pierce Biotechnology).

[4] = molecular target: T4, purified extracellular domain of human Axl (human, UniProt P30530 26-451); assay: as above
T4 construct: extracellular domain; also called human Axl-ECD; Axl-ECD
T4 sequence (looked up): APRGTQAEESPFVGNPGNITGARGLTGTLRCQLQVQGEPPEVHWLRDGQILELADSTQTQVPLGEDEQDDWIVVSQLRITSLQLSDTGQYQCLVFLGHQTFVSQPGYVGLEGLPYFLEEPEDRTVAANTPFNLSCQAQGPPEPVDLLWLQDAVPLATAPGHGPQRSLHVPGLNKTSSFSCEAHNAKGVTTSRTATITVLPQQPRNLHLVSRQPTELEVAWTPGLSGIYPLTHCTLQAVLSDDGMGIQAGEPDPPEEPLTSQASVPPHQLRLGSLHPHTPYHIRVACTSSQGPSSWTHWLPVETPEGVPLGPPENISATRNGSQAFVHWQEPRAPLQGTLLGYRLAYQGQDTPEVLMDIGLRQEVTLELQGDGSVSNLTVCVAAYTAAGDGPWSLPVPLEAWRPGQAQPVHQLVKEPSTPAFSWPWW
Description: as §2

[5] = molecular target: T5, purified extracellular domain of human MerTK (human, UniProt Q12866 21-505); assay: ELISA, plates coated with 100 ng purified extracellular domain, titration of Ab301
T5 construct: extracellular domain; also called human MerTK-ECD
T5 sequence (looked up): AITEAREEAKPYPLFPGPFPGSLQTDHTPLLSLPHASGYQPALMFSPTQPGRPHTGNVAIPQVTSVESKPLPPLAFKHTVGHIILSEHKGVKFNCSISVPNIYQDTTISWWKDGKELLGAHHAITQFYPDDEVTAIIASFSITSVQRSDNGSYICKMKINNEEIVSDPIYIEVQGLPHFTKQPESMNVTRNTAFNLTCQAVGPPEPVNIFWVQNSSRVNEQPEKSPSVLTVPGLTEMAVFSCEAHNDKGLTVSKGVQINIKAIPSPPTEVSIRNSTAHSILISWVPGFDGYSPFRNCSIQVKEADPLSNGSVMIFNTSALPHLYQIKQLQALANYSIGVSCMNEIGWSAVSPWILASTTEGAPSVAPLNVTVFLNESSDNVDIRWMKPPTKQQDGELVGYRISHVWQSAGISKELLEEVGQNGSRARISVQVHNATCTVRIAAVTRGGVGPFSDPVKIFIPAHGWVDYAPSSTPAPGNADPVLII
Description: Binding of Ab301 to human Axl extracellular domain and its lack of binding to human MerTK extracellular domain was determined using the following protocol: Nunc MaxiSorb™ plates (Thermo Fisher Scientific) were coated with 100 ng of the purified extracellular domain of human Axl or human MerTK in […] borate buffer, overnight at 4° C. Plates were washed and blocked for 1 hour at room temperature with Tris-buffered saline (TBS) with 1% BSA. A titration of Ab301 was added to the coated plates for 1 hour at room temperature, followed by washing and incubation with an HRP-conjugated goat anti-human antibody (Jackson Immunoresearch) for 1 hour at room temperature. Washed plates were incubated with 3,3′,5,5′-Tetramethylbenzidine (TMB) substrate (Thermo Fisher Scientific) and read using a Biotek® plate reader. Data are plotted as the optical density at 450 nm (Abs450) as a function of the log-transformed molar concentration of Ab301, and fit to a 4-parameter binding curve using GraphPad Prism™.

[6] = molecular target: T1, human Axl expressed on the surface of …; assay: flow cytometry on H1299 cells
Description: as §1

B1: Ab301 (antibody, human IgG1, V domains shown)
VH: EVKLEASGGGLVQPGMSVKLSCTTSGFTFSDYWMEWVRQAPGKGLEWVAEIRNKVNNYATYYGKSVKGRFTISRDDSKSIVYLQMNSIRSEDTGIYYCNTLRLFAYWGQGTLVTVSA
VL: DIVMTQAPLSISVTPGESPSMSCRSSKSLLHRNGITYVYWYLQKPGKSPQLLIYRMSTLASGVPDRFSGSGSETDFTLKINKVEAEDVGIYYCGQLLENPYTFGAGTRLEIK
notes: also called anti-Axl antibody Ab301
B1: binds [1]; binds [2]; binds [3]. B1: binds [4]; no binding [5].

B2: Ab302 (antibody, V domains shown)
VH: EVQLVESGGGLVKPGGSLKLSCAASGFTFSDYWMEWVRQAPGKGLEWVAEIRNKVNNYATYYGKSVKGRFTISRDDSKNTLYLQMNSLKTEDTAVYYCNTLRLFAYWGQGTLVTVSS
VL: DIQMTQSPSSLSASVGDRVTITCRSSKSLLHRQGITYVYWYQQKPGKVPKLLIYRMSTLASGVPSRFSGSGSGTDFTLTISSLQPEDVATYYCGQLLENPYTFGQGTKLEIK
notes: Humanized
B2: binds [6]; binds [2].

B3: Ab303 (antibody, V domains shown)
VH: B2 VH with L11V, K13Q, G16R, K19R, D76N, K89R, T90A
VL: B2 VL
notes: Humanized
B3: binds [6]; binds [2].

B4: Ab304 (antibody, V domains shown)
VH: B2 VH with K13Q, K19R, A49G, D76E, T80S, L112T
VL: B2 VL
notes: Humanized
B4: binds [6]; binds [2].

B5: Ab305 (antibody, V domains shown)
VH: B2 VH with K13Q, G16R, K19R, A23T, A49G, N79S, T80I, L81A, S117A
VL: B2 VL
notes: Humanized
B5: binds [6]; binds [2].
